Patent publication US20190055293

Tested on: insulin

Row | Substance | insulin disulfide reductase activity (turbidity, optical density at A595 nm)
1 | purified RdCVF(LF) protein (human rod-derived cone viability factor, long form) | The addition of RdCVF (LF) or Trx1 resulted in an increase in optical density at A595 nm
2 | Thioredoxin protein | The addition of RdCVF (LF) or Trx1 resulted in an increase in optical density at A595 nm
